This is an account of results in patent US20200207830A1, “TREM2 MUTANTS RESISTANT TO SHEDDASE CLEAVAGE” (NOVARTIS AG, priority 2017, published 2020).

The subject of one series is BWZ-lacZ-mDAP12 cells. Description: Reporter gene assay in BWZ cells. It counts as cell-based. To be noted: stably expressed with mDAP12, activating anti-TREM2 mAb vs isotype control, 16 h, compared with BWZ-TREM2-WT cells. The method, then:
BWZ thymoma reporter cells, which express lacZ under control of the promoter for nuclear factor of activated T cells (NFAT, Hsieh et al, Journal of Neurochemistry 109, 1144-1156, 2009) were transfected to co-express mDAP12 and WT hTREM2 or T2double TREM2. Cells were seeded in RPMI without phenol red supplemented with 2% FBS and 1% non-essential amino acids on high binding microtiter plates (Greiner) pre-coated with rat anti-mouse/human TREM2 mAb (R&D, MAB17291) or isotype control. Cell culture was continued for 16 h. Reporter gene activity was assessed with the Beta-glo assay system (Promega) according to the manufacturer's recommendations using an Envision 2104 multilabel reader (Perkin Elmer).
Next it was tested whether the T2-double-TREM2 construct retained functionality. To this end this mutant was stably transfected into BWZ cells that already expressed mouse DAP12 and a beta-Gal reporter driven by NFAT (Hsieh, Journal of Neurochemistry 109, 1144-1156, 2009). mDAP12 expressed without TREM2 in this cell lines represents background reporter gene activity (RGA) in this system. […] Thus, the T2-double-TREM2 construct retained TREM2 functions.

The target in series [1] is T1, TREM2 stalk region derived synthetic peptide, Peptide 3.
T1 chain: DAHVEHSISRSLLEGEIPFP

Series [2] addresses T2, TREM2 stalk region derived synthetic peptide, Peptide 4 (H-SI cleavage site replaced with IPP).
T2 chain: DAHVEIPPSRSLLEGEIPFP

Series [3] concerns the target T3, TREM2 stalk region derived synthetic peptide, Peptide 6 (H-SI cleavage site replaced with IDP).
T3 chain: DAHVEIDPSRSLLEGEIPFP

Series [4] has as its target T4, TREM2 stalk region derived synthetic peptide, Peptide 5 (H-SI cleavage site replaced with IPD).
T4 chain: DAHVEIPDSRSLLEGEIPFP

B1: T2-double: human TREM2 mutant combining T2-YGG and T2-WFR mutations; SEQ ID NO: 48 (protein)
chain: MEPLRLLILLFVTELSGAHNTTVFQGVAGQSLQVSCPYDSMKHWGRRKAWCRQLGEKGPCQRVVSTHNLWLLSFLRRWNGSTAITDDTLGGTLTITLRNLQPHDAGLYQCQSLHGSEADTLRKVLVEVLADPLDHRDAGDLWFPGESESFEDAHVYGGWGGWGPEGEIWFRWTSILLLLACIFLIKILAASALWAAAWHGQKPGTHPPSELDCGHDPGYQLQTLPGLRDT
For B1, in the series on BWZ-lacZ-mDAP12 cells, the “Reporter gene activity (RGA) after TREM2 activation” value was “comparable activity”.

B2: recombinant ADAM10 (protein)
chain: TTSAEKNTCQLYIQTDHLFFKYYGTREAVIAQISSHVKAIDTIYQTTDFSGIRNISFMVKRIRINTTADEKDPTNPFRFPNIGVEKFLELNSEQNHDDYCLAYVFTDRDFDDGVLGLAWVGAPSGSSGGICEKSKLYSDGKKKSLNTGIITVQNYGSHVPPKVSHITFAHEVGHNFGSPHDSGTECTPGESKNLGQKENGNYIMYARATSGDKLNNNKFSLCSIRNISQVLEKKRNNCFVESGQPICGNGMVEQGEECDCGYSDQCKDECCFDANQPEGRKCKLKPGKQCSPSQGPCCTAQCAFKSKSEKCRDDSDCAREGICNGFTALCPASDPKPNFTDCNRHTQVCINGQCAGSICEKYGLEECTCASSDGKDDKELCHVCCMKKMDPSTCASTGSVQWSRHFSGRTITLQPGSPCNDFRGYCDVFMRCRLVDADGPLARLKKAIFSPELYENIAE
Turning to B2, the “in vitro cleavage of peptide by ADAM10, HPLC” value in series [1] is “The same analysis was carried out with ADAM10, and a very similar cleavage pattern was obtained (data not shown)”. For the same molecule, the “in vitro cleavage of peptide by ADAM10” value was “Peptide 4, with its IPP replacement for the H-SI cleavage site, appeared to be cleavage resistant in vitro” in series [2]; “Peptides 5 and 6 were slowly cleaved by ADAM10 (data not shown)” in series [3]; “Peptides 5 and 6 were slowly cleaved by ADAM10 (data not shown)” in series [4].
